# The supplement of paper PMC12455559
# Test: purified protein yield per well (BCA); higher = higher soluble expression
# Method in brief: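 Values under 25 ug (0.1 mg/mL) are below the detection threshold. Purified protein yield per well was quantified with the Pierce Rapid Gold BCA kit after candidate enzymes, expressed in E. coli C41(DE3), were captured on Ni-charged magnetic beads and released by SUMO protease on an OT-2 robot. Cultures were 2 mL autoinduction with 100 µg/mL kanamycin, run 2 h at 37 °C and then 40 h at 18 °C.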
row,Sequence,purified protein yield per well
1,CAAQAQTSPPTSASLNATAGPLSVSTSSVSSWAARGFGGGTIYYPNATGRYGVVAISPGYTARQSSIAWLGRRLATHGFVVITIDTNSTLDQPPSRATQLMAALNHVVNNANATVRSRVDASKLAVAGHSMGGGGSLIAAENNPSLKAAYPLTPWSVSKNYSSVRVPTMIIGADGDSIASVSTHSRLFYNSLSSNVSKAYGELNNASHFTPNYTNTPIGRYAVTWMKRFVDNDTRYSPFLCGAPHDSYATRTVFDRYEDNCAY [ESM071],< 25 µg
2,AAPVHHAVTRPVAAHHPVTRPVPRPVVAHAPQPPAVDQIVVPATADARFGGGTIFAPRGAGQKVLGSVVVTPGFHGRKSDMAVYGTELAAEGFVVFTIDTRDRADLPDQRATEMLAAADYLTGRSAVKGEVSPDRVALLGYSMGGGGTLQAAQERPSIKAALTLMPYDYPPAGDPKAVHPAYPELTVPTLIITGQKDATAIPAKFGKPAYDSIPAGTPKQYLQLTGLGHAAGMGKPTATIRAAITAFLERYLDGDTAYAKDICPAPKVGGPISASTSSCGTS [ESM119],< 25 µg
3,YYSGATLYYPIDAPEPFASIVIVPGWGMPESTIQDWGPFFASWGIVAMTIGTNNPNYDWPEERAEALLDAIETIKQEDGRINSPVYGKIDLNSFAVSGWSMGGGGAQLAAVMEPTLKAVIALCPWLDNWVLGPDDLNHSVPILIFSGENDVNAPPYLHADIHYNYTPAATDKLLFEVENGDHYVANGPDGGSGYIGDRAHEWLKKYLLDDFSNCELLLEVPPTASQYLTNIECESVIQGDLNGDGVIDILDIIILVNMILNDEYNSIADLNEDGELNILDVVTIVNLVLFGDDSVCIDIDGNIYETVQIGDQLWMAENLKVTHYNDGSEITHIINSDDWGNYNEGQYGVYDNDPSNADIYGNLYNWYTVDDDRGVCPEGFHAPSDEEFMELEIFLGMSESEANSTGNRGTNEGSKLADNADLWISGNLENNAEFGMSGFNGLPAGHRLYDNGYYSSMGNFVSYWSSTEHSSNYAWNRELEYHASVVYRFYATKQFGFSIRCLGD [TEP063],< 25 µg
4,WTPDPEPPGPVPEPCNTDCSQGPYPTTGSVEANMGPFSISSVSVPWTVSGFGGGTIYYPSSGTTGSLGAIALIPGFLGPEWTISAWGERLASHGFIVITVATNAVTDQPDSRATQLSRALDHVIIESGSTSSPIYGMVDPNRLGAMGISMGGGGTLKLTSDRTLSAAVPMVPWYLGFNDFESIDTPTLIIGCENDTIAPVALHSIPFYNAISDDVDKAYLEMNNGSHGCVAGLTNVDILGKYAVSWMKRFIDNDQRYDQFLCGPNHTAPFSVSDYRDNCDY [DP096],< 25 µg
5,ADNPYQRGPDPTLAGVAASRGPFATAQMSVAPGNGFNGGTVYYPTDTSAGTWGAVAIVPGYTALFADEEAWMGPWLSSFGFVVIGIETNSRTDYDAARGTQLLAALDYLTQRSPVRDRVDTSRLSVIGHSMGGGGVVYASEHRPSLKAAVALAPFSPSQNMSTDQVPTMVMAGQNDTVVTPSYLDGLYATMPAAAQSDFVQIAGADHVYYTHPQSTEMRLLIPWLKIFVDNDTRYTQFLCPSLADPSGISIYHSKCPYVPPGGTTSGGTTSGGTTTGGTTTGGTTTGGTTTGGTTTGGTVGGGTTSGGTSGGACTATYTTVNTWSGGFQGEVKVTAGGQPISGWTVRWTLGSGQSISQVWNGAVTTSGSDVSVGNVSYNGSLQPSTSTTFGFLGAGAPTDASLSCTSP [ESM049],< 25 µg
6,CVFPPAPPPPGSGYTITTVAAGNGFGGGTIYLPEGVTGRRGAVAVVPGFTGTQSTVAWYGPLLAKEGYVVFTIDTNSGWDSPQARGTQLLAALDYLTTQSSAASRVDPARLAVMGHSMGGGGSLEAAKARPSLKAAIPLAGWNSVTNFSTVTVPTLVVA [TEP070],< 25 µg
7,LQMQSLINIGPLQISEINESMGLRNGTDYNGATIYYPINQNNLSSIVLVPGFMNTELTIQNWGPFFASHGIITMTIGTNSLTDTHVQRRDALFDAIISLKQENQRIASPLFGKLDTSSIAVGGFSKGGGGAQLLAKFDPSLKAVVALYPWLENVTASDLEHTVPLIIISGQLDAIAPPFLHADIQYNLTPMTTKKLKYEVAFASHDAISGPYAGNGEVGARVLSWLNTFLVTDSCYCPLLLEQPITSSSYTTNIVCSNLFTNIYESNKSYSKEIIEIRDLYGRKVKFSNSRILIYIYNDGSYEKKITL [TEP016],< 25 µg
8,QTTAPTSASLNATAGPLSVSTASVSLPRGFGGGTIYYPTTQARYGVIAISPGFTATETSIAWLGRRIATHGFVVITLNTLTTLDQPASRANQLMAALSYVVNSSTSAVKARIDTTRLAVAGHSMGGGGALIAARDNPTLKASYPLTPWNSSTSFSTVRVPTMIIGADGDTIAPVAAHARPFYASLPGATTKAYGELNGGTHFSPNSTNTPIGRYGVAWMKRFVDGDTRYSTFLCGTEHTRYASALVFDRYNQNCPY [ESM124],< 25 µg
9,ADNPYERGPDPSWSSIEALRGPYTVDDTSVSRWVSGFGGGTIYYPDTTRDGDFGAAVISPGYTGTQSSIDWLGPRLASQGFVVLTIDTNSVYDQPDSRADQLQAALDYLTGSSDVADRIDPDRLALMGHSMGGGGTLRAVDDDPSIKAAIPMTPWHIKKNWSSVSTPTLIFGAERDSIAPHETHAEPFYDSLSRSLPKAYLELNNASHFAPNSSNTEIASISIAWLKRFVDDDTRYEQFVCPGPSGYAIEKYESSCPF [TEP128],< 25 µg
10,ADNPYQRGPDPTVASVAATRGPFATAQLTVPAGNGFGGGYLYYPTDTSQGTWGAVAIVPGYSALFANEEAWMGPWLASFGFVVIGVETITRTDGADARATELLAALDYLTQRSAVRDRIDATRLAVMGHSAGGAGTILAAEQRPSLKAGVGLAPGTPGSLSLATDKVPMMVVGGQTDPTVTPAYLDNLYAGMPATTPSDFVQIAGADHLFFTRANNTEMKVLIPWLKIFLDNDTRYTQFLCPSLADPSGISLYRSKCPYLPPGTPSPSPSVSPSNPAAGCTASYRTVGSWPGGFQGEVTVTAGGAALNGWTVGWTLGSGQTITQVWNGTLTTSGSAVTVRNASYSGSVPAGGSITFGFLAAGTPSVPALTCAG [ESM028],< 25 µg
11,DANPYQRGPAPTESSVAAEKGPFAVAQTDVPAGSGQGFNDGTIYYPTDTSQGTFGAVVVMPGFVSPQEWIRWYGPLLASQGFVVMTLDSNTLLDFPGARGDQILAALDYLTTKSKVVDRIDTGRLAVMGWSMGGGGTLEAAAERPSLKADIALAPWDLDNVAAKVKVPSMIIADDTDILAPTGVFAKPFYDAMSTAPDKAFFELKSANHFTFTSYNKTIAKYAVSWLKRFVDDDTRYDQFLCPKPAPSNEITQFEETCPLG [TEP059],< 25 µg
12,MEAIVRRGGTRGQVTGILVAVLAMVVALAGAVLAARPALAQPRDTAPGNPYQRGPDPTVAMIEASAGPFATASTSVPAGHGFNGGTVYYPTDTSLGTWGALAIVPGYSALFANEEAWMGPWLASFGFVVIGVETTTRTDSADARGTELLAALNYLTTQSPVRDRVDPNRLSVLGHSAGGAGAMLAAERQPTLKAAVGLAPGSPVGNLSLAADTVPTMVIGGQNDAVVTPSYLSGLYATMPASTQSDFAQVAGADHVYYTHPNNVEMKLLIPWLKTFLDNDTRYTPFLCPAPPDPSSISLYTPKCPYVPGGSAPGGGNTGALHAVGAAKCLAAPSTGAPGAQVTIGTCGGQAGQIWTHTAAAQLTVTLGGATLCLDASGQGSSPGTKVIVWSCNGQVNQQWNLNADGTVTGAQSGLCLDVTGASTADGAPVELWSCNGGGNQQWHLG [TEP068],< 25 µg
13,MGVRYPEQGGFGGVAAVPGYNSAEKAVAWLGPRLASQGFVVITIATKGRSDQPTARGKQLLAALDYLTAKSPAAVRQRLDPQRLAVTGHSMGGGGSLYAAWTRPGLKAAVPLAPWHSIKNWSGITVPTLVQGGTSDDVAPVGTHAEPIYRSLTGARERAYAESAGADHGTFVREDPLIGALTVAWLKRFVDDDARYEQFLCPAPADPGLTEYRHSCPSS [TEP121],< 25 µg
14,CSGSTPTAPAAPAPKATAAPNDRPAPTAQVPRSFERGPAPSEKSVTAKRGPFAFEKIEVPAGSGPGFNKGTIYAPTDTSRGTFGAVVMSPGFASPHTWIDWYGPRLASQGFVVMMLETNTLFDVPLLRGRQIVAALDYLTARSVVRGRVDPSRTAVMGHSMGGGGTLEAARQRPGLKAAVPLAPWNPDYNWGGVVVPTMIIGAQRDVIAPTALMSEAYYNRLTAAPEKAYLVLRGAGHLTFMSPNATIAKYVISWMKRFVDNDSRYDRFLCPPPKPRGLLTVYRGTCPTG [DP037],< 25 µg
15,QNPFERGPAPTTASLEASRGPFATSSFTVSRPSGYGAGTVYYPTNAGGTVGAIAIVPGYTARQSSINWWGPRLASHGFVVITIDTNSTLDQPSSRSRQQLAALDQVATLARTSSSPIYNKVDTTRMGVMGWSMGGGGSLISAENRPSLKAAAPQAPWNSSTNFSSVTVPTLIFACENDSIAATGSHASPMYNSMSRNPKQYLEINGGSHSCANSGNSNQALIGKKGVAWMKRYMDNDTRYTSFACANPNSTRVSDFRVARCS [ESM086],< 25 µg
16,APAESAQRAASPYERGPAPTEQSVSAKLGPFAFTQVPAPANASAGFNQGTVYYPNDTGQGTFGAIAITPGFLSPESSIGWLGPRLASNGFVVITLTTNSPVDFPGGRAAQMRAALDWVTKQAPDAIRSRIDPTRLGVMGWSMGGGGTLEVANTHPNIQAAVPLAPWHLTNNWSTVKVPTMIIGAQNDLIAGVGAHSEPFYESLKSAPERAYAEIKGGNHFSVTVDTPLVGKLATSWMKRFIDDDTRYDQFLCPKPTDSTLSEYRDSCPNG [DP035],< 25 µg
17,MIYYPTDTSQGTFGAIAISPGYTALFSVELAWMGPRLASQGFVVIGIETNDRNDFDTARGTQLLAALDYLTGQSSVRSRVDPNRLAVAGHSMGGGGAFSAALRRPALKAAVGFTPFSPSQNLTNMQVPALLYSGQYDTVTTPSSVSNLYNGLPSTTEGAYIEAAGLDHSFPTRPNTLLMRTMIPWVKIFLDNDLRYTQFLCPLMDSSGVLQYRNTCPLVPPGLPSPSPTTAPPTTAPPTTAPPTTAPPTTAPPTTAPPTTAPPTTAPPSGACTATYQTIGSWPGGFQGEVTVRAGNSAINGWTVGWSLGSGQSITQIWNGTLSTSGSSVSVRNVSYNGSLPAAGTATFGFLGSGSPSTPSTVTCTSP [ESM001],< 25 µg
18,QARDVTAGNPYQRGPDPTVAMIEARTGPFATASASVPAGYGFNGGMVYYPTDTSLGTWGALAIVPGYSALFANEEAWMGPWLASFGFVVIGVETTTRTDSADARGTELLSALNYLTTQSPVRDRVDPNRLSVLGHSAGGAGAMLAAQRQPTLKAAVGLAPGSPVGNLSLATDTVPTMVIGGQNDSVVTPSYLSGLYATMPASTQSAFAQIAGADHVYYTRPNNVETKLLIPWLKTFLDNDTRYVPFLCPAPPDPSSLSMYVPKCPYVPGGSGPGGGGNTGALHAVGAAKCLAAPSSGTPGTQLTIGTCDGQARQTWTRTATDQLTVTTAGATLCLDASGQGGSPGTKAIVWSCNGQANQHWNVNSNGTVTSAQSGLCLDVTGGSTAEGAPVELWTCNGGGNQQWHLG [TEP085],< 25 µg
